These results are taken from US20250263470A1.

In test [1] the target is recombinant HA derived from Yamagata lineage strain B/FLA/06 (B/Florida/4/2006) (influenza B virus B/Florida/4/2006). Kind of test: ELISA on coated recombinant HA, unpurified IgG.
For test [2], the target named is recombinant HA derived from Victoria lineage strain B/BNE/08 (B/Brisbane/60/2008) (influenza B virus B/Brisbane/60/2008). Kind of test: ELISA on coated recombinant HA, unpurified IgG. For orientation: In an ELISA, binding on a coated surface is turned into a signal by an enzyme label.
The target in test [3] is HA of influenza B virus B/Hong Kong/330/2001 (victoria) (influenza B virus B/Hong Kong/330/2001). As to the kind of experiment: cell-based or functional assay.
Test [4] addresses HA of influenza B virus ca B/Beijing/243/97 (victoria) (influenza B virus B/Beijing/243/97). Kind of test: cell-based or functional assay.
Test [5] concerns the target HA of influenza B virus ca B/Ann Arbor/1/66 (influenza B virus B/Ann Arbor/1/66). As to the kind of experiment: cell-based or functional assay.
For test [6], the target named is HA of influenza B virus ca B/Ann Arbor/2/94 (yamagata) (influenza B virus B/Ann Arbor/2/94). As to the kind of experiment: cell-based or functional assay.
In test [7] the target is HA of influenza B virus ca B/Brisbane/60/2008 (victoria) (influenza B virus B/Brisbane/60/2008). Kind of test: cell-based or functional assay.
Test [8] deals with HA of influenza B virus B/Sichuan/379/99 (yamagata) (influenza B virus B/Sichuan/379/99). As to the kind of experiment: cell-based or functional assay.
In test [9] the target is HA of influenza B virus B/Hong Kong/5/72 (influenza B virus B/Hong Kong/5/72). Kind of test: cell-based or functional assay.
For test [10], the target named is HA of influenza B virus ca B/Yamanashi/166/98 (yamagata) (influenza B virus B/Yamanashi/166/98). Kind of test: cell-based or functional assay.
Test [11] addresses HA of influenza B virus B/Lee/40 (influenza B virus B/Lee/40) (UniProt P03460). As to the kind of experiment: cell-based or functional assay.
Test [12] concerns the target HA of influenza B virus B/Malaysia/2506/2004 (victoria) (influenza B virus B/Malaysia/2506/2004). Kind of test: cell-based or functional assay.
In test [13] the target is recombinant HA derived from influenza A subtype H9 (A/chicken/HK/G9/97 (H9N2)) (influenza A virus A/chicken/Hong Kong/G9/97 (H9N2)). Kind of test: ELISA on coated recombinant H9 HA.
Test [14] concerns the target HA of influenza B virus ca B/Johannesburg/5/99 (yamagata) (influenza B virus B/Johannesburg/5/99). Kind of test: cell-based or functional assay.
Test [15] has as its target recombinant HA derived from Yamagata lineage strain B/FLA/06 (B/Florida/4/2006) (influenza B virus B/Florida/4/2006). As to the kind of experiment: ELISA on coated recombinant HA, average of three experiments.
The target of test [16] is recombinant HA derived from Victoria lineage strain B/BNE/08 (B/Brisbane/60/2008) (influenza B virus B/Brisbane/60/2008). The test is described as above.
The target in test [17] is HA of influenza B virus B/Yamagata/16/88 (yamagata) (influenza B virus B/Yamagata/16/88). Kind of test: cell-based or functional assay.
Test [18] addresses HA of influenza B virus B/Ohio/1/2005 (victoria) (influenza B virus B/Ohio/1/2005). Kind of test: cell-based or functional assay.
Test [19] concerns the target HA of influenza B virus ca B/Georgia/02/98 (yamagata) (influenza B virus B/Georgia/02/98). As to the kind of experiment: cell-based or functional assay.
Test [20] has as its target HA of influenza B virus B/Shanghai/361/02 (yamagata) (influenza B virus B/Shanghai/361/02). As to the kind of experiment: cell-based or functional assay.
Test [21] addresses HA of influenza B virus ca B/Victoria/504/2000 (yamagata) (influenza B virus B/Victoria/504/2000). As to the kind of experiment: cell-based or functional assay.

Numbering of substitutions follows the chain as printed. Bounds are passed on as bounds.

A word on the EC50: it is the concentration that produces a half-maximal response.

B1: FBC-39 LSL (antibody, V domains shown)
VH: EVQLVESGGGLVKPGGSLRLSCAASGLSFLNAWMSWVRQAPGKGLEWVGRIKSNTDGGTTDYAAPVKGRFTISRDDSKNTLYLQMSSLKTEDTAVYYCTTDGPYSDDFRSGYAARYRYFGMDVWGQGTTVTVSS
VL: DIQMTQSPSSVSASVGDRVTITCRASQDISTWLAWYQQKPGKAPKLLIYAASSLQSGVPSRFSGSGSGTDFTLTISSLQPEDFATYYCQQANSFPPTFGQGTKLEIK
In the case of B1, the EC50 in [1] was 0.021 µg/mL; in test [2] it was 0.152 µg/mL; in [13], 41.7 µg/mL. The Neutralization (Ave IC50 ug/ml) is 0.172 µg/mL in [3]; 0.182 µg/mL in [4]; 0.027 µg/mL in test [5]; 0.033 µg/mL in test [6]; 0.1 µg/mL in test [7]; 0.026 µg/mL in test [8]. In addition, the Neutralization (Ave IC50 ug/ml) in test [9] came to 0.019 µg/mL; in test [10] it was 0.014 µg/mL; in test [11] it was 0.014 µg/mL; in test [12], 0.094 µg/mL.

B2: FBC-39 FTL (antibody, V domains shown)
VH: B1 VH with L27F, S28T
VL: B1 VL
As to B2, the values for the EC50 in test [1], in test [2] and in test [13] were 0.017 µg/mL, 0.118 µg/mL and 46.1 µg/mL, respectively. The Neutralization (Ave IC50 ug/ml) in [3] turned out to be 0.121 µg/mL; in test [4] it was 0.134 µg/mL; in [5] it was 0.026 µg/mL; in test [6] it was 0.023 µg/mL; in test [7] it was 0.098 µg/mL; in [8], 0.023 µg/mL. Also, the Neutralization (Ave IC50 ug/ml) in test [9] amounted to 0.022 µg/mL; in [10] it was 0.007 µg/mL; in [11], 0.013 µg/mL; in [12] it was 0.074 µg/mL.

B3: FBC-39 FSS (antibody, V domains shown)
VH: B1 VH with L27F, L30S
VL: B1 VL
B3: the EC50 in test [1] is 0.019 µg/mL; in [2] it was more than 1 µg/mL.

B4: FBC-39 FSL (antibody, V domains shown)
VH: B1 VH with L27F
VL: B1 VL
In the case of B4, the values for the EC50 in [1] and in test [2] were 0.014 µg/mL and 0.273 µg/mL, respectively. Moreover, the Neutralization (Ave IC50 ug/ml) in test [3] worked out at 0.132 µg/mL; in test [4] it was 0.195 µg/mL; in [5] it was 0.034 µg/mL; in [6], 0.023 µg/mL; in test [7], 0.08 µg/mL; in test [8], 0.022 µg/mL. In addition, the Neutralization (Ave IC50 ug/ml) in test [9] stood at 0.019 µg/mL; in test [10], 0.009 µg/mL; in test [11], 0.011 µg/mL; in test [12], 0.076 µg/mL.

B5: FBC-39 LTS (antibody, V domains shown)
VH: B1 VH with S28T, L30S
VL: B1 VL
Regarding B5, the EC50 is 0.013 µg/mL in test [1] and more than 1 µg/mL in test [2].

B6: FBC-39 LTL (antibody, V domains shown)
VH: B1 VH with S28T
VL: B1 VL
For B6, the EC50 in [1] amounted to 0.017 µg/mL; in [2], 0.114 µg/mL; in test [13], 6.3 µg/mL. Also, the Neutralization (Ave IC50 ug/ml) in test [3] came to 0.084 µg/mL; in test [4], 0.152 µg/mL; in [5], 0.023 µg/mL; in test [6], 0.023 µg/mL; in [7], 0.151 µg/mL; in test [8], 0.023 µg/mL. In addition, the Neutralization (Ave IC50 ug/ml) in [9] worked out at 0.018 µg/mL; in test [10], 0.01 µg/mL; in test [11], 0.01 µg/mL; in test [12] it was 0.076 µg/mL.

B7: FBD-56 (antibody, V domains shown)
VH: EVQLVESGGHLVQPGRSLRLSCAASGFTFEDYAMNWVRQAPGKGLEWVSVISWDSGRIGYADSVKGRFTISRDNAKNSSYLQMNSLRPEDTALYYCVRDMLAYYSDNSGKKYNVYGMDVWGQGTTVTVSS
VL: EIVLTQSPATLSLSPGERATLSCRASQSVSTFLAWYQQKPGQAPRLLMYDASNRATGIPARFSGSGSGTDFTLTISSLEPEDFAIYYCQQRSHWPPIFGQGTRLEIK
In the case of B7, the Neutralization (Ave IC50 ug/ml) in test [3] came to 0.038 µg/mL; in [4] it was 0.016 µg/mL; in test [5], 0.035 µg/mL; in [14], 0.021 µg/mL; in [6], 1.25 µg/mL; in test [7], 0.01 µg/mL. Moreover, the Neutralization (Ave IC50 ug/ml) was 0.051 µg/mL in [9], 0.133 µg/mL in [10], 0.004 µg/mL in test [11] and 0.058 µg/mL in test [12]. The EC50 in [15] was 0.024 µg/mL; in test [16] it was 0.03 µg/mL.

B8: FBD-94 (antibody, V domains shown)
VH: EVQLVESGGGLVQPGRSLRLSCAVSGFIFEDYAINWVRQAPGKGLEWVSIISWDSGRIGYADSVRGRFTISRDNAKNSSFLQMNSLRPEDTAVYYCVKDMLAYYYDGSGIRYNLYGMDVWGQGTTVTVSS
VL: B7 VL with Q27R, V29I, S30T, M48I, I58V, S76N, E81D, S92D
For B8, the Hemagglutination Inhibition Titer in [3] stood at 10 nM; in test [4], 10 nM; in [17], 250 nM; in [5] it was 10 nM; in test [14], 10 nM; in test [18], 10 nM. In addition, the Hemagglutination Inhibition Titer was determined as 5 nM in test [6]; 4 nM in test [7]; 5 nM in test [8]; 3 nM in test [9]; 10 nM in test [10]; 8 nM in [19]. Besides, the Hemagglutination Inhibition Titer in test [20] stood at 0 nM; in test [21], 8 nM; in test [11] it was 1 nM; in [12], 10 nM. For the same molecule, the Neutralization (Ave IC50 ug/ml) in test [3] was found to be 0.021 µg/mL; in test [4], 0.005 µg/mL; in [5], 0.014 µg/mL; in [14], 0.012 µg/mL; in test [6], 0.891 µg/mL; in test [7], 0.006 µg/mL. Also, the Neutralization (Ave IC50 ug/ml) in test [9] was determined as 0.017 µg/mL; in test [10] it was 0.012 µg/mL; in test [11] it was 0.009 µg/mL; in test [12], 0.023 µg/mL. In addition, the EC50 amounted to 0.013 µg/mL in test [15] and 0.016 µg/mL in [16].
